Here are results for seven molecules from US20210032330A1 (PHANES THERAPEUTICS, published 2021).

Where two headings read alike, the source gives them in different places.

The target of assay [1] is T1, human T-cell immunoglobulin and mucin-domain containing molecule 3 (TIM-3) (human, UniProt Q8TDQ0 22-200, limits assumed).
T1 construct: also called Human TIM-3
As to the kind of experiment: competition ELISA: pre-equilibrated mixture of mAb and human TIM3(ECD)-huFc on plate-coated phosphatidylserine (PtdSer, a lipid), anti-huFc-HRP detection, % inhibition.
Procedure: (§1) ELISA plates were coated with PtdSer or PtdChol, washed and incubated with a pre-equilibrated mixture of purified antibodies at various concentrations and TIM3(ECD)-huFc. The plates were washed and then the signal was detected by incubation with HRP-coupled anti-huFc secondary antibody and then a HRP substrate. TIM-3 binding to PtdSer was used as 100% signal and TIM-3 binding to PtdChol as zero (background) to calculate percent of inhibition by a given mAb.
(§2) To determine the effect of anti-TIM-3 antibodies on the interaction of TIM-3 with phosphatidylserine (PtdSer), 384-well ELISA plates were coated with PtdSer or phosphatidylcholine (PtdChol) at room temperature. The wells were washed using PBS supplemented with 0.1% Tween-20 and then blocked using PBS supplemented with 2% bovine serum albumin (BSA). […] The plates were washed and then incubated with HRP-coupled anti-huFc secondary antibody. Plates were washed, incubated with an HRP substrate, and read using a POLARstar Omega Microplate (BMG LABTECH). The assay was performed in triplicate.

Assay [2] concerns the target T1, human T-cell immunoglobulin and …. Put plainly: FACS on HEK293 cells transiently transfected with human TIM-3 (HuTIM-3 cells) against parental HEK293 cells (CTL cells), anti-mouse AlexaFluor488 secondary, MFI.
Procedure: The binding of purified anti-TIM-3 mAbs to HEK293 cells transiently transfected with human TIM-3 (labeled as “HuTIM-3 cells”) or parental HEK293 cells (labeled as “CTL cells”) was tested by FACS at 3 different concentrations. An anti-mouse secondary Ab AlexaFluor488 was used for detection.
A human TIM-3-expressing plasmid was made and transiently transfected into HEK293T cells. After approximately 48 hours, cells were transferred to a 384-well V-bottom plate. Cells were washed with ice-cold FACS buffer (PBS supplemented with 1% BSA) and incubated with purified mAbs with gentle agitation at 4° C. for 45 minutes. The cells were washed with FACS buffer and incubated with an anti-mouse secondary Ab AlexaFluor488. The cells were washed and analyzed by FACS.
Assay [3] has the same target. Put plainly: competition ELISA: pre-equilibrated mixture of mAb and human TIM3(ECD)-huFc on plate-coated phosphatidylserine (PtdSer, a lipid), anti-huFc-HRP detection, % inhibition. This is another data set of the same source.
Procedure: as §1, §2
Assay [4] has the same target. Put plainly: BLI (OCTET Red96), mAb on anti-mouse Fc biosensor, antigen in solution, 1:1 model.
Procedure: Binding experiments were performed on OCTET Red96 at 25° C. Antibodies were loaded onto Anti-Mouse Fc (AMC) biosensors. Loaded sensors were dipped into serial dilutions of antigen. Kinetic constants were calculated using a monovalent (1:1) model. The assay buffer was PBS supplemented with 0.1% BSA, 500 mM NaCl, 0.02% Tween-20, pH 7.2.
Assay [5] shares this target. As to the kind of experiment: competition ELISA: pre-equilibrated mixture of mAb and human TIM3(ECD)-huFc on plate-coated phosphatidylserine (PtdSer, a lipid), anti-huFc-HRP detection, % inhibition. The source holds these as a separate data set.
Procedure: as §1, §2

B1: 12-G18-A (antibody, V domains shown)
VH: DVQLQESGPGLVKPSQSLSLTCTVTGYSITSDYAWNWIRQFPGNKLEWMGYISYSGSTSYNPSLKSRISITRDTSKNQFFLQLNSVTIGDTATYYCASNYRYDYWFFGVWGAGTTVTVSS
VL: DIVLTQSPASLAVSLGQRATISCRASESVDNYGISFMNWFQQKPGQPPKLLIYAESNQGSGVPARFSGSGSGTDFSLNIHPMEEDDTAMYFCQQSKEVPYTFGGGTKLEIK
notes: also called anti-TIM-3 monoclonal antibody 12-G18-A
As to B1, the “IC50 (read off the curve)” value in assay [1] was ~6 nM.

B2: 2-K2-A (antibody, V domains shown)
VH: QVQLQQSGAELAKPGASVKMSCKASGYTFTTYWMHWVKQRPGQGLEWIGYINPSTGYTEYNQKFKDKSTLTADKSSSTAYMQLSSLTSEDSAVYYCANDHEGGFAYWGQGTLVTVSA
VL: DILMTQSPSSMSVSLGDTVSITCHASQGISSNIGWLQQKPGKSFKGLIYHGTNLEDGVPSRFSGSGSGADYSLTISSLESEDFADYYCVQYAQFPFTFGSGTKLEIK
notes: also called anti-TIM-3 monoclonal antibody 2-K2-A
As for B2, the binding result in assay [2] is given as “binds”.

B3: 19-A14-A (antibody, V domains shown)
VH: DVQLQGSGPGLVKPSQSLSLTCTVTGYSITSDYAWNWIRQFPGNILEWMGYISYSGSTSYNPSLKSRISITRDTSKNQFFLQLNSVTTEDTATYYCARDGRYDYYAMDYWGQGTSVTVSS
VL: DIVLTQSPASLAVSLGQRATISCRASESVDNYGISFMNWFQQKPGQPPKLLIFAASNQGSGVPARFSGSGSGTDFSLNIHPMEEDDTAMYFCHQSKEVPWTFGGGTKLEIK
notes: also called anti-TIM-3 monoclonal antibody 19-A14-A
With B3, the “IC50 (read off the curve)” value in assay [1] was ~7 nM.

B4: 18-O22-A (antibody, V domains shown)
VH: EVQLQQSGPELVKPGASVKVSCKASGYTFTSYVMHWVKQKPGQGLEWIGYINPYNDVTKYNEKFKGKATLTSDKSSSTAYMELSSLTSEDSAVYYCARSSDYDDGHWYFDVWGAGTTVTVSS
VL: DIVLTQSPASLAVSLGQRATISCKASQSVDYDGESYMNWYQQKPGQPPKLLIYVASNLESGIPVRFSGSGSGTDFTLNIHPVEEEDAATYYCQQSNEDPTWTFGGGTKLEIK
notes: also called anti-TIM-3 monoclonal antibody 18-O22-A
For the molecule B4, in assay [3], the binding result was “binds”.

B5: 7-P15-A (antibody, V domains shown)
VH: QIQLVQSGPELKKPGETVKISCKASGYTFTNYGMNWVKQAPGKGLKWMGWINTYTGEPTYADDFKGRFAFSLETSASTAYLQINNLKNEDTATYFCARDLMDYWGQGTTLTVSS
VL: DVVMTQTPLSLPVSLGDQASISCRSSQSLVHSNGNTYLHWYLQKPGQSPKLLIYKVSNRFSGVPDRFSGSGSGTDFTLKITRVEAEDLGVYFCSQSIHVPYTFGGGTKLEIK
notes: also called anti-TIM-3 monoclonal antibody 7-P15-A
B5: the binding result in assay [3] is “binds”.

B6: anti-TIM-3 monoclonal antibody 5-K4-A (antibody, V domains shown)
VH: EVQLQQSGPELVKTGASVKISCKASGYSFTAYYIHWVKQSHGKSLEWIGHISCFNGATSYNQKFKGKATFTVDTSSSTAYMQFNSLTSEDSAVYYCARRGDFDRPEFAYWGQGTLVTVSA
VL: DIVLTQSPASLAVSLGQRATISCRASESVEYYGTSLMQWYQQKPGQPPKLLIYAASNVESGVPARFSGSGSGTDFSLNIHPVEEDDIAMYFCQQSRKVPWTFGGGTKLEIK
notes: Mouse hybridoma mAb; captured on anti-mouse Fc biosensors
Molecule B6 returned a Kd in assay [4] of 1.8 nM. Also, the “IC50 (read off the curve)” value in assay [5] is ~6 nM.

B7: 5-C11-A (antibody, V domains shown)
VH: EVQLVESGGGLVKPGGSLKLSCAASGFTFSDFYMYWVRQTPEKRLEWVATISDGGSYTYYPDSVKGRFTISRDNAKNNLYLQMSSLKSEDTAMYYCASGYYYGSDYVMDYWGQGTSVTVSS
VL: DIVMSQSPSSLAVSAGEKVTMSCKSSQSLLNSRTRKNYLAWYQQKPGQSPKLLIYWASTRESGVPDRFTGSGSGTDFTLTISSVQADDLAVYYCKQSYNLLTFGAGTKLELK
notes: also called anti-TIM-3 monoclonal antibody 5-C11-A
As for B7, the binding result in assay [2] is reported as “binds”.
